Experimental data published in US20250340658A1 (TWIST BIOSCIENCE, published 2025).
Where two headings read alike, the source gives them in different places.

Legend:
[1] = molecular target: T1, full length human GLP-1R with N-terminal FLAG tag and C-terminal GFP tag, on CHO cells (human, UniProt P43220 24-463); assay: flow cytometry titration, CHO GLP1R cells
T1 construct: whole, on cells; the cell line itself is tied to UniProt P43220; also called FLAG-GLP-1R-GFP; CHO-GLP-1R
Description: (§1) GLP-1R IgG clones were tested in a binding assay coupled to flow cytometry analysis as follows: FLAG-GLP-1R-GFP expressing CHO cells (CHO-GLP-1R) and CHO-parent cells were incubated with 100 nM IgG for 1 h on ice, washed three times and incubated with Alexa 647 conjugated goat-anti-human antibody (1:200) (Jackson ImmunoResearch Laboratories, 109-605-044) for 30 min on ice, followed by three washes, centrifuging to pellet the cells between each washing step. All incubations and washes were in buffer containing PBS+1% BSA. […] Cells were analyzed by flow cytometry and hits (a hit is an IgG that specifically binds to CHO-GLP-1R) were identified by measuring the GFP signal against the Alexa 647 signal. Flow cytometry data of binding assays with 100 nM IgG are presented as dot plots. Analyses of binding assays with IgG titrations are presented as binding curves plotting IgG concentrations against MFI (mean fluorescence intensity).

[2] = molecular target: T1, full length human GLP-1R with …; assay: flow cytometry titration, CHO GLP1R cells; remark: listed apart in the source
Description: as §1

[3] = molecular target: T1, full length human GLP-1R with …; assay: flow cytometry, GLP1R-expressing CHO cells
Description: as §1

[4] = molecular target: T1, full length human GLP-1R with …; assay: flow cytometry, GLP1R-expressing CHO cells; remark: listed apart in the source
Description: as §1

[5] = molecular target: T1, full length human GLP-1R with …; assay: flow cytometry, expressing vs parent CHO cells
Description: as §1

[6] = molecular target: T1, full length human GLP-1R with …; assay: flow cytometry, expressing vs parent CHO cells; remark: listed apart in the source
Description: as §1

[7] = molecular target: T1, full length human GLP-1R with …; assay: flow cytometry, expressing vs parent CHO cells; remark: listed apart in the source
Description: as §1

[8] = molecular target: T1, full length human GLP-1R with …; assay: flow cytometry, expressing vs parent CHO cells; remark: listed apart in the source
Description: as §1

[9] = molecular target: T1, full length human GLP-1R with …; assay: flow cytometry, expressing minus parent CHO cells
Description: as §1

[10] = molecular target: T1, full length human GLP-1R with …; assay: flow cytometry, expressing minus parent CHO cells; remark: listed apart in the source
Description: as §1

B1: GLP1R-3 (antibody, human IgG2, lambda, V domains shown)
VH: QVQLVESGGGVVQPGRSLRLSCAASGFTFSSYGMHWVRQAPGKGLEWVSFISYDESNKYYADSVKGRFTISRDNSKNTLYLQMNSLRAEDTAVYYCAKHMSMQEGAVTGEGQAAKEFIAWLVKGRVRADLVGDAFDVWGQGTLVTVSS
VL: QSVLTQPPSVSAAPGQKVTISCSGSSSNIADNYVSWYQQLPGTAPKLLIYDNNKRPSGIPDRFSGSKSGTSATLGITGLQTGDEADYYCGTWDNYLGAGVFGGGTKLTVLG
notes: full length human IgG2; also called GLP1R01-3
[1]
  Bmax: 800000
  EC50: 11.5 nM
[2]
  Bmax: 153000
  EC50: 15.4 nM
[3]
  Median RL1-H of Expressing Singlets: 232000
[4]
  Median RL1-H of Expressing Singlets: 224000
[5]
  MFI Ratio: 993
[6]
  MFI Ratio: 740
[7]
  MFI Ratio: 993
[8]
  MFI Ratio: 740
[9]
  Subtraction: 232000
[10]
  Subtraction: 224000
